{"source": "paper doi:10.1101/2025.03.30.646247", "about": "(bioRxiv, 2025)", "target": "T1, 6xHis-CIPK6 (Arabidopsis thaliana, UniProt O65554 1-441)", "T1 sequence": "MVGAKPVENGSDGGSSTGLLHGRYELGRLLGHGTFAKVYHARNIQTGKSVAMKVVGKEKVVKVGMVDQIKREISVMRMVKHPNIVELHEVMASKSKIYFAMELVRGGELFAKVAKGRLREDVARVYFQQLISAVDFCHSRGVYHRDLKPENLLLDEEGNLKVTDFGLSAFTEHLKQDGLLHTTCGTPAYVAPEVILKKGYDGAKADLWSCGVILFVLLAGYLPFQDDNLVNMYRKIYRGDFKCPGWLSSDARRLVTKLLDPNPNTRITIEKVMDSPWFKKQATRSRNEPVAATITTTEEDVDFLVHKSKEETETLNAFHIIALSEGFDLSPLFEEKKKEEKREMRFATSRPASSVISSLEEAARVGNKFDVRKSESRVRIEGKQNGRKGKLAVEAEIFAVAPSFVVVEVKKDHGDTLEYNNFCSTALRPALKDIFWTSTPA", "assay": "pull-down", "data": [{"binder": "GST-RbohD-N (domain or fragment) MKMRRGNSSNDHELGILRGANSDTNSDTESIASDRGAFSGPLGRPKRASKKNARFADDLPKRSNSVAGGRGDDDEYVEITLDIRDDSVAVHSVQQAAGGGGHLEDPELALLTKKTLESSLNNTTSLSFFRSTSSRIKNASRELRRVFSRRPSPAVRRFDRTSSAAIHALKGLKFIATKTAAWPAVDQRFDKLSADSNGLLLSAKFWECLGMNKESKDFADQLFRALARRNNVSGDAITKEQLRIFWEQISDESFDAKLQVFFDMVDKDEDGRVTEEEVAEIISLSASANKLSNIQKQAKEYAALIMEELDPDNAGFIMIENLEMLLLQAPNQSVRMGDSRILSQMLSQKLRPAKESNPLVRWSEKIKYFILDNWQR", "values": [{"measurement": "binding result", "result": "binds"}]}]}
